Source: patent US20210371527A1 (IMAGINAB, published 2021)
One block for each binder: values may come before it.

Target: T1, human CD4 on HPB-ALL cells (human, UniProt P01730 26-458)
T1 construct: The assay used HPB-ALL cells; no signal peptide limits are stated; also called HPB-ALL cells (human T cell leukemia, DSMZ ACC 483); HPC-ALL
Test: flow cytometry on HPB-ALL cells

binding result: binds
B1: deferoxamine conjugated humanized IAB41-1 minibody (other)
chain: EIVLTQSPATLSLSPGERATLSCSARSSVSYLYWYQQKPGQAPRLLIYDTSNLASGIPDRFSGSGSGTDFTLTISRLEPEDAAVYYCQQWSDYPLTFGGGTKLEIKGSTSGGGSGGGSGGGGSSQVQLVQSGAEVKKPGASVKVSCKASGYSFANYWMHWVRQAPGQRLEWIGALYPGNVDTTYNQKFQGRVTITRDTSASTAYMELSSLRSEDTAVYYCTRMGTTLEAPLDYWGQGTLVTVSSEPKSSDKTHTCPPCPPCGGGSSGGGSGGQPREPQVYTLPPSREEMTKNQVSLTCLVKGFYPSDIAVEWESNGQPENNYKTTPPVLDSDGSFFLYSKLTVDKSRWQQGNVFSCSVMHEALHNHYTQKSLSLSPG
modifications: deferoxamine (Df) chelator conjugated; sites of conjugation not stated
notes: also called Df-Hu-IAB41-1

binding result: binds
B2: humanized IAB41-1 minibody (other)
chain: B1 chain
notes: also called Hu-IAB41-1; Construct 41-1
